Reference: PMC10154249, “Unique progerin C-terminal peptide ameliorates Hutchinson–Gilford progeria syndrome phenotype by rescuing BUBR1” (Nature Aging, 2023)

Biological target: T1, Flag-BUBR1 (human, UniProt O60566 1-1050)
T1 construct: also called Flag beads-BUBR1; source: eluted with 3×Flag peptide for MST, left on Flag beads for the pull-down
Assay: pull-down; 10 μg purified His-UPCP incubated with Flag beads, Flag beads-BUBR1 or Flag beads-PTBP1 for 16 h at 4 °C; beads washed three times with PBS
Conditions: both partners purified

T1 sequence (O60566 whole entry): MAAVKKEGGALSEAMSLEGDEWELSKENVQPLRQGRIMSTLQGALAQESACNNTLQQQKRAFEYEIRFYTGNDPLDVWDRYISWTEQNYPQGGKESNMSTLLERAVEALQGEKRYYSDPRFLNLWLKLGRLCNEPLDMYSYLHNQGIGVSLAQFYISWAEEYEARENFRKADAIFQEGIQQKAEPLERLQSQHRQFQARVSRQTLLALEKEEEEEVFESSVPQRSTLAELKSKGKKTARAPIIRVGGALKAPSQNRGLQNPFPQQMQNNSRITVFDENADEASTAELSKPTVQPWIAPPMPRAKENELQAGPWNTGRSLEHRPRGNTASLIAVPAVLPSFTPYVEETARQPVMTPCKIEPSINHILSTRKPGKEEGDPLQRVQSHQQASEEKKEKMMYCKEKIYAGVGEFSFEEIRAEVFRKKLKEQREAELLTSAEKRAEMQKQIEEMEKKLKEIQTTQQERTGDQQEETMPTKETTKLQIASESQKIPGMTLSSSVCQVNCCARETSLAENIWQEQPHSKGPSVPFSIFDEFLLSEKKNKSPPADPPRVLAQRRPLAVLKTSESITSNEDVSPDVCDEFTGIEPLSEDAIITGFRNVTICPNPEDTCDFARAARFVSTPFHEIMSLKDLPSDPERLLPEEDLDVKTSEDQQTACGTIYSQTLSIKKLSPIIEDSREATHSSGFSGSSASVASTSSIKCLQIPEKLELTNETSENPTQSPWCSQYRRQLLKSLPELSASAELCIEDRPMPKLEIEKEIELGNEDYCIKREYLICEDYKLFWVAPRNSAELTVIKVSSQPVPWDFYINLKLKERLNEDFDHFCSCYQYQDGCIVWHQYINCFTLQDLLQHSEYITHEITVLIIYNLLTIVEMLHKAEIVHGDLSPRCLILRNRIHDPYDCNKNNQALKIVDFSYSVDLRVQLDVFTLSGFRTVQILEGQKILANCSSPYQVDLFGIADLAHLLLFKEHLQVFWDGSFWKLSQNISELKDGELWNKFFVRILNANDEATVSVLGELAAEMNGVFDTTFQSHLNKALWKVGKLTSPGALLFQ

Q: Does YGRKKRRQRRRYNLRSRTVLCGTCGQPADKASASGSGAQSPQNCSIM (also called His-tagged UPCP) [His-UPCP] bind?
A: binds
